Assay results as given in US20210047402A1 (TENEOBIO, published 2021).
Positions count from the first letter of the chain named.

T1: human CD22 (human, UniProt P20273 20-687, limits assumed)
T1 construct: also called SIGLEC-2; human CD22 protein
T1 sequence (looked up): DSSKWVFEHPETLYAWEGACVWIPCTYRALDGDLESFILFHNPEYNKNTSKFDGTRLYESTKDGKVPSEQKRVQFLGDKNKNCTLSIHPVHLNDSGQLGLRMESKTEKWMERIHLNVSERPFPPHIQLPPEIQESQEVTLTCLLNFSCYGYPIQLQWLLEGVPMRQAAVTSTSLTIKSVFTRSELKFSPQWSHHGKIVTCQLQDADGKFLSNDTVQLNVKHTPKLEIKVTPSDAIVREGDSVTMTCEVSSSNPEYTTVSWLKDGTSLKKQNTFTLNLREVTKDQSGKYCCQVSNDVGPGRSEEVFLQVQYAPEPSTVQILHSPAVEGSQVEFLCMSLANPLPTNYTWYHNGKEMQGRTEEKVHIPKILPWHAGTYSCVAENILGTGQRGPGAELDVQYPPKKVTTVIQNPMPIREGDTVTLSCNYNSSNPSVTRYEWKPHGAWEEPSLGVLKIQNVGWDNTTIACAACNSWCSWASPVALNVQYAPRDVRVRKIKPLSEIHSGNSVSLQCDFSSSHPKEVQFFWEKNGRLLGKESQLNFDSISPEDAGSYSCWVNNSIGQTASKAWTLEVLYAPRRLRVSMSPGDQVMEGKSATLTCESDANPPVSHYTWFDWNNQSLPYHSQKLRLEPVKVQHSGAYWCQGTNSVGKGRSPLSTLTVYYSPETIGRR

B1: anti-CD22 heavy chain-only antibody Clone ID 335301 (antibody, V domains shown)
VH: QLQLQESGPGLVKPSETLSLTCTVSGDSISSGDYYWGWIRQPPGKGLEWIGNIYYSGATYYNPSLKNRVTISVDTSKNQFSLKLSSVTAADTAVYYCTREDSSSWRSRGQGTLVTVSS
notes: Heavy chain-only antibody (UniAb), no light chain
B2: anti-CD22 heavy chain-only antibody Clone ID 335316 (antibody, V domains shown)
VH: B1 VH with D27G, G32S, D33S, N52H
notes: as for B1
B3: anti-CD22 heavy chain-only antibody Clone ID 335307 (antibody, V domains shown)
VH: B1 VH with N52S, A58S, N67S
notes: as for B1
B4: anti-CD22 heavy chain-only antibody Clone ID 335333 (antibody, V domains shown)
VH: B1 VH with D27G, G32S, D33S, N52S, A58S, N67S, T98A
notes: as for B1
B5: anti-CD22 heavy chain-only antibody Clone ID 335323 (antibody, V domains shown)
VH: B1 VH with D33G, N52S, A58S
notes: as for B1
B6: anti-CD22 heavy chain-only antibody Clone ID 335179 (antibody, V domains shown)
VH: QLQLQESGPGLVKPSETLSLTCTVSGGSISSSSYYWGWFRHPPGKGLDWIGSIHYSGSTYYNPSLKSRVTISVDTSRNQFSLNLSSVTAADTAVYYCTRDDSSNWRSRGQGTLVTVSS
notes: as for B1
B7: anti-CD22 heavy chain-only antibody Clone ID 335311 (antibody, V domains shown)
VH: QLQLQESGPGLVKPSETLSLTCAVYGGSFSGYYWGWIRQPPGKGLEWIGHIYYSGATYYNPSLKNRVTISVDTSRNQFSLNLSSVTAADTAVYYCTREDSSSWRSRGQGTLVTVSS
notes: as for B1

These binders were tested against T1, human CD22 (assay: ELISA protein and cell-binding assays).

binding result	Binder
binds	B1
binds	B2
binds	B3
binds	B4
binds	B5
binds	B6
binds	B7
